Results from patent US20240100162A1.

B1: TCR1 (TCR)
TCR alpha: KQEVTQIPAALSVPEGENLVLNCSFTDSAIYNLQWFRQDPGKGLTSLLLIQSSQREQTSGRLNASLDKSSGRSTLYIAASQPGDSATYLCAAMKTSYDKVIFGPGTSLSVIPNIQNPDPAVYQLRDSKSSDKSVCLFTDFDSQTNVSQSKDSDVYITDKTVLDMRSMDFKSNSAVAWSNKSDFACANAFNNSIIPEDTFFPSPESSCDVKLVEKSFETDTNLNFQNLSVIGFRILLLKVAGFNLLMTLRLWSS
TCR beta: GEEVAQTPKHLVRGEGQKAKLYCAPIKGHSYVFWYQQVLKNEFKFLISFQNENVFDETGMPKERFSAKCLPNSPCSLEIQATKLEDSAVYFCASSQGQGGYGYTFGSGTRLTVVEDLNKVFPPEVAVFEPSEAEISHTQKATLVCLATGFFPDHVELSWWVNGKEVHSGVSTDPQPLKEQPALNDSRYCLSSRLRVSATFWQNPRNHFRCQVQFYGLSENDEWTQDRAKPVTQIVSAEAWGRADCGFTSVSYQQGVLSATILYEILLGKATLYAVLVSALVLMAMVKRKDF
B2: TCR3 (TCR)
TCR alpha: AQKVTQAQTEISVVEKEDVTLDCVYETRDTTYYLFWYKQPPSGELVFLIRRNSFDEQNEISGRYSWNFQKSTSSFNFTITASQVVDSAVYFCALSVLRMDSSYKLIFGSGTRLLVRPDIQNPDPAVYQLRDSKSSDKSVCLFTDFDSQTNVSQSKDSDVYITDKTVLDMRSMDFKSNSAVAWSNKSDFACANAFNNSIIPEDTFFPSPESSCDVKLVEKSFETDTNLNFQNLSVIGFRILLLKVAGFNLLMTLRLWSS
TCR beta: NAGVTQTPKFRVLKTGQSMTLLCAQDMNHEYMYWYRQDPGMGLRLIHYSVGEGTTAKGEVPDGYNVSRLKKQNFLLGLESAAPSQTSVYFCASSLQGAGQPQHFGDGTRLSILEDLNKVFPPEVAVFEPSEAEISHTQKATLVCLATGFFPDHVELSWWVNGKEVHSGVSTDPQPLKEQPALNDSRYCLSSRLRVSATFWQNPRNHFRCQVQFYGLSENDEWTQDRAKPVTQIVSAEAWGRADCGFTSVSYQQGVLSATILYEILLGKATLYAVLVSALVLMAMVKRKDF
B3: TCR2 (TCR)
TCR alpha: QKEVEQNSGPLSVPEGAIASLNCTYSDRGSQSFFWYRQYSGKSPELIMSIYSNGDKEDGRFTAQLNKASQYVSLLIRDSQPSDSATYLCAVNIPFSNSGGYQKVTFGTGTKLQVIPNIQNPDPAVYQLRDSKSSDKSVCLFTDFDSQTNVSQSKDSDVYITDKTVLDMRSMDFKSNSAVAWSNKSDFACANAFNNSIIPEDTFFPSPESSCDVKLVEKSFETDTNLNFQNLSVIGFRILLLKVAGFNLLMTLRLWSS
TCR beta: NAGVTQTPKFRVLKTGQSMTLLCAQDMNHEYMYWYRQDPGMGLRLIHYSVGEGTTAKGEVPDGYNVSRLKKQNFLLGLESAAPSQTSVYFCASRHPGQYNQPQHFGDGTRLSILEDLNKVFPPEVAVFEPSEAEISHTQKATLVCLATGFFPDHVELSWWVNGKEVHSGVSTDPQPLKEQPALNDSRYCLSSRLRVSATFWQNPRNHFRCQVQFYGLSENDEWTQDRAKPVTQIVSAEAWGRADCGFTSVSYQQGVLSATILYEILLGKATLYAVLVSALVLMAMVKRKDF

What follows are binders tested against highly frequent MHC Class I alleles in major US ethnic groups, including 38 HLA-A, 40 HLA-B, and 24 HLA-C alleles, on a panel of 34 BLCLs (assay: cell-based or functional assay).

cytokine (IFNg, TNFa, IL-12p70) and granzyme B production in co-culture with BLCLs, fold over IL12-RFP control T cells [fold]	Binder
< 4	B1
< 4	B2
< 4	B3
